{"source": "paper PMC4588518", "molecular_target": "LegK4^1–445 (Legionella pneumophila LegK4, residues 1 to 445) (Legionella pneumophila)", "assay": "SEC-SAXS"}
{"substance": "LegK4^1–445 (Legionella pneumophila LegK4, residues 1 to 445) (domain or fragment)", "values": [{"measurement": "stoichiometry N", "value": 2}]}
